{"source": "paper PMC7076025", "about": "“A unique DNA-binding mode of African swine fever virus AP endonuclease”", "binders": {"B1": {"name": "DNA-2 (dsDNA)", "DNA 1": "GCAGCGTCACCGACGAAA", "DNA 2": "CCTCGTCGGGGACGCTGC"}}, "target": "T1, AsfvAP WT (African swine fever virus, UniProt P0C9C6 1-296)", "T1 sequence": "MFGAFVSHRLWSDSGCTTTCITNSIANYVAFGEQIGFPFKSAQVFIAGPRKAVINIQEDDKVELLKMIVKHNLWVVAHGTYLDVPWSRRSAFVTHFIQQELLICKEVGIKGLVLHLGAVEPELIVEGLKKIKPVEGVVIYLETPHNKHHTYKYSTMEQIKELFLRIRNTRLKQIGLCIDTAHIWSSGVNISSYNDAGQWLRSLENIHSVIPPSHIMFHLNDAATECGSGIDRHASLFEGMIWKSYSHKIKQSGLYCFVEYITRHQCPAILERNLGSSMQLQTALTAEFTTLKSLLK", "assay": "X-ray crystallography", "conditions": "protein: recombinant; tags: His-SUMO removed with Ulp1; GSGGG linker encoded before M1"}
{"binder": "B1", "values": [{"measurement": "binding result", "value": "binds"}]}
